Data on two molecules can be found in patent publication US20090110678A1 (Eli Lilly, published 2009).

One may read the koff as the first-order rate constant of dissociation. In general, Kd refers to the free concentration of one partner at which half of the binding sites on the other are occupied at equilibrium, for simple one-to-one binding. In general, EC50 refers to the concentration that produces a half-maximal response. Usually IC50 stands for the midpoint of a concentration-inhibition curve. Higher therefore signals a need for much substance.

Assay [1] has as its target T1, PDGFRα expressed on cells (PAE Rα, PC3-ML, SKLMS-1, U118) (human, UniProt P16234 24-1089). The assay can be described thus: cell-based or functional assay.
In assay [2] the target is T2, Human PDGFRα extracellular domain (ECD) (human, UniProt P16234 24-528).
T2 construct: extracellular domain; Bought reagent; also called PDGFRa ECD; PDGFRα ECD
Nature of the assay: SPR, BIAcore 3000, PDGFRα ECD immobilized, antibody injected. The procedure:
(§1) The kinetics of antibody binding to PDGFRα was measured using a BIAcore 3000 instrument (BIAcore, Inc., Piscataway, N.J.). PDGFRα ECD was immobilized onto a sensor chip and antibody was injected at various concentrations. Sensograms were obtained at each concentration and evaluated using the BIA Evaluation 2.0 program to determine the rate constants. The affinity constant, Kd, was calculated from the ratio of rate constants Koff/Kₒₙ.
(In general: In SPR one partner is held on a chip, and binding of the other changes the refractive index at the surface.)

Assay [3] addresses T2, Human PDGFRα extracellular domain (ECD). The assay can be described thus: SPR, BIAcore 3000, PDGFRα ECD immobilized, antibody injected; Koff/Kon. The procedure:
as §1

Assay [4] has the same target. Nature of the assay: direct binding ELISA on immobilized PDGFRα ECD (ED50, 50% maximum binding). For orientation: In an ELISA, binding on a coated surface is turned into a signal by an enzyme label.
The target is the same in assay [5]. Nature of the assay: solid-phase blocking assay: inhibition of [125I]PDGF-AA binding to immobilized PDGFRα ECD.
For assay [6] the target is unchanged. The assay can be described thus: solid-phase blocking of [125I]PDGF-BB binding to immobilized PDGFRα ECD; [125I]PDGF-BB as ligand, solid phase.
Assay [7] concerns the target T1, PDGFRα expressed on cells (PAE Rα, …). Nature of the assay: cell-based PDGF blocking assay (Heldin et al. 1988); cells and PDGF isoform not named; cell-based PDGF blocking; cells and isoform not named.
Assay [8] deals with T2, Human PDGFRα extracellular domain (ECD). The assay can be described thus: solid-phase blocking of iodinated PDGF binding to immobilized PDGFRα ECD; the table does not name the ligand, [125I]PDGF-AA by the legend of FIG. 13B; solid-phase PDGF blocking; ligand not named in Table 6.

T2 sequence (P16234 24-528): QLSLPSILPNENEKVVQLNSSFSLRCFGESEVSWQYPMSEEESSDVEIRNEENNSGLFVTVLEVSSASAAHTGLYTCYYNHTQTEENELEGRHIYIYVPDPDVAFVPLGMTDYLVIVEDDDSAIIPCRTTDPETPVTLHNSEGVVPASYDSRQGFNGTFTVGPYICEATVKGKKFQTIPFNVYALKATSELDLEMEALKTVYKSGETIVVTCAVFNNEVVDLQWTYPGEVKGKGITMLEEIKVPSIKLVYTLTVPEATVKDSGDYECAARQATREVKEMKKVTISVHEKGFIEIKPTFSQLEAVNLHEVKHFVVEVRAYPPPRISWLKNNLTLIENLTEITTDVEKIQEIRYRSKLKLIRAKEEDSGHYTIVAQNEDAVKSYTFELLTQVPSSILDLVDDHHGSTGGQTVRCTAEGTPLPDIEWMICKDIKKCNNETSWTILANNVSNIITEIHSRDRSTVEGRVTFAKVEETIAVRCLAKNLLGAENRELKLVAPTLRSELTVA
T1 sequence (P16234 24-1089): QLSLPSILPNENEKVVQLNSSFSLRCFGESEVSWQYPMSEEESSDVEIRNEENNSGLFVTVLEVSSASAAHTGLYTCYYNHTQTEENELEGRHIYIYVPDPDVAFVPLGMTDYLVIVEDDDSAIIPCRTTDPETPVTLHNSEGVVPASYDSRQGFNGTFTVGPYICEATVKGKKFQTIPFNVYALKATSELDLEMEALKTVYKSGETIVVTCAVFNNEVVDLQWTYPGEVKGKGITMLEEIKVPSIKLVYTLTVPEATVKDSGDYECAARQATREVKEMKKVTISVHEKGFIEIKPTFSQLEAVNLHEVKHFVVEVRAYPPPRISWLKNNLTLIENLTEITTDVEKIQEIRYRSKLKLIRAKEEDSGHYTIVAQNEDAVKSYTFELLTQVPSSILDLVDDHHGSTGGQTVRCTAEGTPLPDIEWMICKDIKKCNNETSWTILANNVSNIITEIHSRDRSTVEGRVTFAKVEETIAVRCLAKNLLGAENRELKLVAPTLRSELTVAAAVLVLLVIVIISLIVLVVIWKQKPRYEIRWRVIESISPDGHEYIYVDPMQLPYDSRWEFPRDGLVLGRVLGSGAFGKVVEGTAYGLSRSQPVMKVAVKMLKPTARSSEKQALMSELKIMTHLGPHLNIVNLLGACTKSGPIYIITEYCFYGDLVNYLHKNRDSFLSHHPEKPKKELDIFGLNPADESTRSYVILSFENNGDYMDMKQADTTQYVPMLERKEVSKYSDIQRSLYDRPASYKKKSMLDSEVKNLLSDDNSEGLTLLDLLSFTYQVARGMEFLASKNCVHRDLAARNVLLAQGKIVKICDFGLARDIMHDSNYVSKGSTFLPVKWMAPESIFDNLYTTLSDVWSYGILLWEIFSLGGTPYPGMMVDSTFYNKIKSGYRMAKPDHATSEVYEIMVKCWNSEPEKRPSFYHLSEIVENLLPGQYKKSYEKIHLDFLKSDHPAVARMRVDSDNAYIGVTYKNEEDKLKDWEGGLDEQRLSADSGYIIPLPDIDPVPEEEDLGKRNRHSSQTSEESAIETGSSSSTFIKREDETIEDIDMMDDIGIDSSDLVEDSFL

B1: PDGF-BB (ligand, UniProt P01127 82-190, looked up)
chain: SLGSLTIAEPAMIAECKTRTEVFEISRRLIDRTNANFLVWPPCVEVQRCSGCCNNRNVQCRPTQVQLRPVQVRKIEIVRKKPIFKKATVTLEDHLACKCETVAAARPVT
modifications: 125I label in the blocking assay
Take B1: in assay [1], the “PDGFRα tyrosine phosphorylation in PAE Rα cells” value was ~5 fold (at 3 nmol/L).

B2: IMC-3G3, human anti-PDGFRα monoclonal antibody (antibody, human IgG1, V domains shown)
VH: QLQLQESGPGLVKPSETLSLTCTVSGGSINSSSYYWGWLRQSPGKGLEWIGSFFYTGSTYYNPSLRSRLTISVDTSKNQFSLMLSSVTAADTAVYYCARQSTYYYGSGNYYGWFDRWDQGTLVTVSS
VL: EIVLTQSPATLSLSPGERATLSCRASQSVSSYLAWYQQKPGQAPRLLIYDASNRATGIPARFSGSGSGTDFTLTISSLEPEDFAVYYCQQRSNWPPAFGQGTKVEIK
notes: also called EMC-3G3; anti-PDGFRα antibody
Consider B2, for which the “EC50, inhibition of PDGF-AA-induced thymidine incorporation in U118 cells” value in assay [1] was found to be 3.4 nmol/L. The koff in assay [2] stood at 4.7e-05 s⁻¹. The molecule further yielded a Kd in assay [3] of 0.04 nM. The half-maximal effective concentration (EC50) in assay [4] was found to be 0.06 nM. Further, the “IC50 (read off the curve)” value in assay [5] was roughly 0.3 nM. For the same molecule, the results for the IC50 in assay [6], in assay [7] and in assay [8] were 0.43 nM, 0.58 nM and 0.24 nM, respectively.
